The results in this text go back to patent publication US20220017608A1 (Teva, published 2022).

Where no end group is shown, it is not given here. The star is where a group is joined. Biotin = O=C1N[C@H]2[C@H](CS[C@H]2CCCCC(=O)*)N1

For assay [1], the target named is T1, human α-CGRP (human, C-terminal amide (CONH2); N-biotinylated when captured on the Biacore chip).
T1 construct: N-biotinylated in the Biacore assays; also called α-Hu; α-human
T1 peptide: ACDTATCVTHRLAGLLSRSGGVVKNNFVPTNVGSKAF
In words: blocking of human α-CGRP binding to the CGRP1-receptor in SK-N-MC cells; IC50 converted to binding sites.

Assay [2] has as its target T1, human α-CGRP. The experiment in a line: Biacore, N-biotinylated CGRP captured on chip, 25 C. (In general: SPR reads the build-up and loss of mass on a sensor chip optically.)
The target in assay [3] is T2, rat α-CGRP (rat, not fully specified; C-terminal amide (CONH2); N-biotinylated when captured on the Biacore chip).
T2 construct: also called α-Rat; α-rat
T2 peptide: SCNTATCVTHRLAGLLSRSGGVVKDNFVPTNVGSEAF
Described as above.

The target in assay [4] is T3, rat β-CGRP (rat, not fully specified; C-terminal amide (CONH2); N-biotinylated when captured on the Biacore chip).
T3 construct: also called β-rat
T3 peptide: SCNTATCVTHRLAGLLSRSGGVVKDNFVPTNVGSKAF
In words: Biacore (legend of Table 1), rat β-CGRP.

The target in assay [5] is T1, human α-CGRP. The experiment in a line: competition binding assay on SK-N-MC cells: antibody blocks binding of human α-CGRP to the CGRP1 receptor.
Assay [6] deals with T1, human α-CGRP. The experiment in a line: competition binding assay on SK-N-MC cells: antibody blocks binding of human α-CGRP to the CGRP1 receptor; value in IgG molecules.
The target in a further assay is T4, cynomolgus monkey α-CGRP (cynomolgus monkey).
T4 construct: also called cyno CGRP
The experiment in a line: Biacore.

The target in assay [7] is T1, human α-CGRP. The experiment in a line: Biacore, N-biotin-CGRP on chip, 25 C.
Assay [8] concerns the target T2, rat α-CGRP. In words: Biacore, N-biotin-CGRP on chip, 25 C.
The target in another assay is T5, calcitonin (Homo sapiens (Human), UniProt P01258 85-116, not fully specified; Natural calcitonin has a C-terminal Pro amide and a Cys1-Cys7 disulfide. The patent passages shown say nothing on this.).
T5 peptide: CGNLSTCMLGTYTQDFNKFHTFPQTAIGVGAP
In words: Biacore solution competition, chip probes free G1.

The next assay concerns the target T6, amylin (Homo sapiens (Human), UniProt P10997 34-70, not fully specified; Natural amylin has a C-terminal Tyr amide and a Cys2-Cys7 disulfide. The patent passages shown say nothing on this.).
T6 peptide: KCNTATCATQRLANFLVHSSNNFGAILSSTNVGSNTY
The experiment in a line: Biacore solution competition, chip probes free G1.

A further assay concerns the target T7, adrenomedullin (Homo sapiens (Human), UniProt P35318 95-146, Natural adrenomedullin has a C-terminal Tyr amide and a Cys16-Cys21 disulfide. The patent passages shown say nothing on this.).
T7 sequence (peptide): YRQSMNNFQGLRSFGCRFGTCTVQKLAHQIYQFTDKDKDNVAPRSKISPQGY
In words: Biacore solution competition, chip probes free G1.

For assay [9], the target named is T3, rat β-CGRP. In words: Biacore (legend of Table 1).
Assay [10] has as its target T1, human α-CGRP. The experiment in a line: competition binding assay on SK-N-MC cells: antibody blocks binding of human α-CGRP to the CGRP1 receptor; value in binding sites.
The target in assay [11] is T1, human α-CGRP. In words: Biacore, ratio of KD against rat α-CGRP.
The target in a further assay is T8, human β-CGRP (human, not fully specified; C-terminal amide (CONH2); N-biotinylated when captured on the Biacore chip).
T8 construct: also called β-human
T8 peptide: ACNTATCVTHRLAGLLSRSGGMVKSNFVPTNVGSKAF
In words: Biacore, N-biotin-CGRP on chip, 37 C.

In assay [12] the target is T3, rat β-CGRP. The experiment in a line: Biacore, N-biotin-CGRP on chip, 37 C.
In assay [13] the target is T1, human α-CGRP. The experiment in a line: Biacore, N-biotin-CGRP on chip, 37 C.
Assay [14] concerns the target T2, rat α-CGRP. The experiment in a line: Biacore, N-biotin-CGRP on chip, 37 C.
For a further assay, the target named is T9, N31A (ends and bridges not checked).
T9 construct: also called HuαCGRP fragment 25-37 N31A
T9 peptide: Biotin-NNFVPTAVGSKAF
The experiment in a line: Biacore 3000, 25 °C, alanine scan: N-biotinylated peptide on SA chip, G1 Fab titrated; fold loss versus wild-type 25-37 fragment. On the procedure:
(§1) Interaction analysis was conducted at 25° C. on a Biacore 3000™ system equipped with streptavidin-coated (SA) sensor chips (Biacore AB, Uppsala, Sweden) using a standard Biacore running buffer (HBS-P). […] Each amino acid between position 27-37 was then mutated individually to alanine and expressed the fold loss in affinity compared to the wild-type fragment. […] Fab fragments were titrated over the chip using 1 μM as the top concentration of a two-fold dilution series. Association and dissociation phases were monitored at 100 μl/min for 1 minute and 5 minutes respectively. Surfaces were regenerated with a mixture of 35% ethanol+25 mM NaOH+0.5M NaCl.

The target of the next assay is T10, V32A (ends and bridges not checked).
T10 construct: also called HuαCGRP fragment 25-37 V32A
T10 peptide: Biotin-NNFVPTNAGSKAF
Described as above. As to the method: as §1

The target in another assay is T11, P29A (ends and bridges not checked).
T11 construct: also called HuαCGRP fragment 25-37 P29A
T11 peptide: Biotin-NNFVATNVGSKAF
Described as above. As to the method: as §1

The target of a further assay is T12, T30A (ends and bridges not checked).
T12 construct: also called HuαCGRP fragment 25-37 T30A
T12 peptide: Biotin-NNFVPANVGSKAF
Described as above. On the procedure:
as §1

In the next assay the target is T13, F27A (ends and bridges not checked).
T13 construct: also called HuαCGRP fragment 25-37 F27A
T13 peptide: Biotin-NNAVPTNVGSKAF
The assay is described as above. On the procedure: as §1

For a further assay, the target named is T14, K35A (ends and bridges not checked).
T14 construct: also called HuαCGRP fragment 25-37 K35A
T14 peptide: Biotin-NNFVPTNVGSAAF
The assay is described as above. As to the method: as §1

Another assay addresses T15, V28A (ends and bridges not checked).
T15 construct: also called HuαCGRP fragment 25-37 V28A
T15 peptide: Biotin-NNFAPTNVGSKAF
The assay is described as above. As to the method: as §1

B1: antibody G2 (antibody, V domains shown)
VH: EVQLQQSGPELVKPGASVKMSCKASGYTFTSSVMHWVKQKPGQGLEWIGYINPYNDGTKYNEKFKGKATLTSDKSSSTAYMELSSLTSEDSAVYYCAKGGNDGYWGQGTTLTVSS
VL: EIVLTQSPTTMAASPGEKITITCSASSSISSIYLHWYQQKPGFSPKVLIYRASNLASGVPARFSGSGSGTSYSLTIGTMEAEDVATYYCQQGSTIPFTFGSGTKLEIKR
notes: Anti-rat CGRP mouse monoclonal antibody (Wong et al. 1993); also called RN4901
As for B1, the IC50 (as a rule, the concentration that inhibits the measured activity by half) with human α-CGRP [1] amounted to 37 nM. The Kd – broadly, the constant that tells how readily two partners part at equilibrium – in the assay with human α-CGRP [2] is 17 nM; with rat α-CGRP [3], 1 nM; in the assay with rat β-CGRP [4], 17 nM.

B2: antibody G1 (antibody, human IgG2, kappa, V domains shown)
VH: EVQLVESGGGLVQPGGSLRLSCAASGFTFSNYWISWVRQAPGKGLEWVAEIRSESDASATHYAEAVKGRFTISRDNAKNSLYLQMNSLRAEDTAVYYCLAYFDYGLAIQNYWGQGTLVTVSS
VL: EIVLTQSPATLSLSPGERATLSCKASKRVTTYVSWYQQKPGQAPRLLIYGASNRYLGIPARFSGSGSGTDFTLTISSLEPEDFAVYYCSQSYNYPYTFGQGTKLEIKR
notes: Humanized IgG2 delta-a antibody derived from muMAb7E9; also called anti-CGRP antibody G1
On to B2, for which, in the assay with human α-CGRP [5], the “IC50 (read off the curve)” value is approximately 0.1 µg/mL. Besides, the inhibitory constant (Ki) (usually the dissociation constant of the complex between target and ligand, obtained from inhibition or displacement) was 0.37 nM in the assay with human α-CGRP [6] and 0.74 nM with human α-CGRP [10]. Further, the Kd with cynomolgus monkey α-CGRP turned out to be 0.063 nM; with human α-CGRP [7] it was 0.042 nM; in the assay with rat α-CGRP [8], 1.22 nM; with rat β-CGRP [9] it was 0.1 nM; with human α-CGRP [2], 0.04 nM; with rat α-CGRP [3], 1.2 nM. Further, the Kd came to 0.155 nM with human β-CGRP, 0.152 nM with rat β-CGRP [12], 0.063 nM with human α-CGRP [13] and 2.57 nM in the assay with rat α-CGRP [14]. The T1/2 with human α-CGRP [7] was 24.7 h; with rat α-CGRP [8] it was 3.12 h; with human β-CGRP, 2.76 h; in the assay with rat β-CGRP [12] it was 2.45 h; in the assay with human α-CGRP [13], 5.3 h; in the assay with rat α-CGRP [14] it was 0.48 h. Also, the koff (commonly the rate constant with which the complex falls apart) worked out at 7.8e-06 s⁻¹ with human α-CGRP [7]; 6.18e-05 s⁻¹ in the assay with rat α-CGRP [8]; 6.98e-05 s⁻¹ with human β-CGRP; 7.85e-05 s⁻¹ with rat β-CGRP [12]; 3.63e-05 s⁻¹ with human α-CGRP [13]; 0.000399 s⁻¹ with rat α-CGRP [14]. The kon (commonly a measure of how fast the partners come together) in the assay with human α-CGRP [7] was found to be 186000 M⁻¹ s⁻¹; with rat α-CGRP [8], 50800 M⁻¹ s⁻¹; in the assay with human β-CGRP, 451000 M⁻¹ s⁻¹; in the assay with rat β-CGRP [12] it was 516000 M⁻¹ s⁻¹; in the assay with human α-CGRP [13], 587000 M⁻¹ s⁻¹; with rat α-CGRP [14] it was 155000 M⁻¹ s⁻¹. In addition, the binding result with calcitonin, in the assay with amylin and in the assay with adrenomedullin was “no binding (tested: an excess)” each time. In addition, the IC50 in the assay with human α-CGRP [1] amounted to 1.2 nM; in the assay with human α-CGRP [10] it was 1.8 nM. In addition, the “fold more potent affinity than for rat α-CGRP” value in the assay with human α-CGRP [11] came out at 40 fold.

B3: Fab fragments of antibody G1 (Fab, V domains shown)
VH: EVQLVESGGGLVQPGGSLRLSCAASGFTFSNYWISWVRQAPGKGLEWVAEIRSESDASATHYAEAVKGRFTISRDNAKNSLYLQMNSLRAEDTAVYYCLAYFDYGLAIQNYWGQGTLVTVSS
VL: EIVLTQSPATLSLSPGERATLSCKASKRVTTYVSWYQQKPGQAPRLLIYGASNRYLGIPARFSGSGSGTDFTLTISSLEPEDFAVYYCSQSYNYPYTFGQGTKLEIK
notes: 'Purified Fab fragments of antibody G1 were generated'; also called G1 Fab
Turning to B3, the “Fold loss in affinity” value is 1.9 fold with N31A; 6.1 fold with V32A; 2.8 fold with P29A; 1.7 fold with T30A; 1.4 fold in the assay with F27A; 8.1 fold with K35A. Also, the “Fold loss in affinity” value in the assay with V28A came to 1 fold.
